Experimental data reported in patent US20180231567A1.

Columns and labels:
[1] = biological target: serum IgE of the 10 allergic adults sensitized to peanut extract used for the inhibition experiments (Example 3) (human); experiment: ELISA cross-inhibition; Ara h 6 immobilized, sera pre-incubated with competing allergen at 0.1, 1 and 10 ug/ml
[2] = biological target: serum IgE of the 10 allergic adults sensitized to peanut extract used for the inhibition experiments (Example 3) (human); experiment: ELISA cross-inhibition; Ara h 7.0201 immobilized, sera pre-incubated with competing allergen at 0.1, 1 and 10 ug/ml

B1: Ara h 2 isotype 2.0201, as expressed in example 1 (His fusion protein) (protein)
chain: MSHHHHHHIEGRTMRQQWELQGDRRCQSQLERANLRPCEQHLMQKIQRDEDSYGRDPYSPSQDPYSPSQDPDRRDPYSPSPYDRRGAGSSQHQERCCNELNEFENNQRCMCEALQQIMENQSDRLQGRQQEQQFKRELRNLPQQCGLRAPQRCDLEVESGGRDRY
% inhibition (median) [1]: 43%
% inhibition (median) [2]: 16%
